The source of these data is patent publication US20260347439 (published 2026).

In assay [1] the target is T1, RSV A2 pre-F (Respiratory syncytial virus A2). The experiment in a line: ELISA.
For assay [2], the target named is T1, RSV A2 pre-F. The experiment in a line: BLI.
The target in assay [3] is T1, RSV A2 pre-F. The experiment in a line: BLI. The source holds these as a separate data set.
Assay [4] deals with T1, RSV A2 pre-F. Briefly: ELISA. The source holds these as a separate data set.

Where two headings read alike, the source gives them in different places.

B1: F6-113 (antibody, V domains shown)
VH: QVQLQQWGAGLLKPSETLSLTCAVDGASVSDDDWTWIRQSPGKGLEWIGQIDQTGSFNYNPSLRSRVTISPDTSKNHFSLSLTSVTAADTALYYCARGGLVVTDVGQGWDAFDVWGQGTMVTVSS
VL: DIQLTQSPSSVSASVGDRITITCRASQDIDNWLAWYQQKPGEAPKLLIYAASTLQSGVPSRFSGSGAGTEFTLTITSLQPEDFAGYFCQQGDSFPLTFGGGTKVDIK
Take B1: the EC50 in assay [1] came out at 0.0133 µg/mL. Moreover, the Kd in assay [2] was below 0.001 nM.

B2: F6-10 (antibody, V domains shown)
VH: DALLLQSGGGLMQPGGSLRLSCAASEFTFNIHAMTWVRQSPGKGLEWVSGISSTGEGTYYTDSVKGRFTISRDNSKSTLYLQMNSLRAEDTATYFCARYSFRYGELRGTFDIWGQGVLVSVSS
VL: DIQMTQTPSTLSASVGDRVIITCRASQSVGDSVAWFQQKPGRAPKLLIYDTTNLERGVPSRFSGSFSGTAFTLTITRLQPDDFATYYCQQYDESWTFGQGTKVEVK
With B2, the EC50 in assay [1] stood at 0.0307 µg/mL. The molecule further yielded a dissociation constant Kd in assay [2] of 0.994 nM.

B3: F6-125 (antibody, V domains shown)
VH: QLQLVQSGTEVKKPGASVKVSCKASGYTFSDNAINWVRQAPGQGLEWLGWITANNGNTNYAQKIQGRVTMTTDTSTSTVYMELRSLGSDDTAVYYCAREVVNYGLGSLHFDYWGQGTLVTVSS
VL: SYELTQPPSVSVSPGQTVSISCSGDKLGNDYASWYQQKPGQSPLLVIYEDAKRPSGIPERFSGSNSGNTATLTISGTQAMDDADYYCQAWDGTTVIFGGGTKLTVL
As for B3, the EC50 in assay [1] came out at 0.0144 µg/mL. The molecule further had a dissociation constant Kd in assay [2] below 0.001 nM.

B4: F6-18 (antibody, V domains shown)
VH: EEQLVESGGGLVRPGGSLRLSCVASGFSVSDYGMHWVRQAPGRGLEYVSAIRSHGDGTYYVNSVKGRFIISRDNSKNTLYLQMGSLSAEDMAVYYCARDRVWAHDYDDTAWLDAFDLWGQGTTVIVSS
VL: DIQMTQSPSTLSASVGDKVTITCRASQSVGSLLAWYQQKPGKAPKLLIYDASNLQRGVPSRFSGSGSGTEFTLTISSLQPDDFATYYCQQYKSHSPPFGQGTKLEIK
Regarding B4, in assay [3], the Kd worked out at 0.0805 nM. In addition, in assay [4], the EC50 was determined as 0.016 µg/mL.

B5: MEDI8897 (antibody, V domains shown)
VH: QVQLVQSGAEVKKPGSSVMVSCQASGGLLEDYIINWVRQAPGQGPEWMGGIIPVLGTVHYGPKFQGRVTITADESTDTAYMELSSLRSEDTAMYYCATETALVVSETYLPHYFDNWGQGTLVTVSS
VL: DIQMTQSPSSLSAAVGDRVTITCQASQDIVNYLNWYQQKPGKAPKLLIYVASNLETGVPSRFSGSGSGTDFSLTISSLQPEDVATYYCQQYDNLPLTFGGGTKVEIKR
B5: the Kd in assay [3] turned out to be 0.122 nM; in assay [2] it was 0.379 nM. The EC50 in assay [1] came out at 0.0313 µg/mL; in assay [4], 0.0146 µg/mL.
